# Experimental data: publication PMC7822688, “W196 and the β-Hairpin Motif Modulate the Redox Switch of Conformation and the Biomolecular Interaction Network of the Apoptosis-Inducing Factor” (Oxidative Medicine and Cellular Longevity, 2021)
# “Also recorded” adds a separate entry of the source. Read-outs that look alike come from different tables or passages of the source.
# T1: CHCHD4 (Homo sapiens, UniProt Q8N4Q1)
# T1 construct: His6 (N); made in house; host or cells: E. coli C41 (DE3)
# T1 sequence (Q8N4Q1 1-142): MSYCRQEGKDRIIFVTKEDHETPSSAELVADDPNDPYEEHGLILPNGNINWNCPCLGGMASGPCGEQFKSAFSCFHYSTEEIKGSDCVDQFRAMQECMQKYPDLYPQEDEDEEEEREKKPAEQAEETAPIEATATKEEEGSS
# Tests used:
# [1] = Stopped-flow CTC formation on mixing photoreduced hAIF∆1-101 with NAD+; format: biochemical
# Description: Stopped-flow spectrophotometry was also used to evaluate the rate constants of CTC formation when mixing photoreduced hAIF∆1-101 (hAIF∆1-101phrd) with increasing concentrations of NAD^+ (0.125-5 mM) under anaerobic conditions. hAIF∆1-101phrd samples were obtained by photoreduction in the presence of 5 μM methyl viologen, 3 μM 5-deazariboflavin, and 20 mM EDTA. The assays were performed at 25 °C in 50 mM potassium phosphate, pH 7.4, under anaerobic conditions (obtained by several cycles of vacuum application and bubbling with O2 free argon). Data were global fitted to a single step model (A→B), and kobs were determined at the different NAD^+ concentrations assayed. These values were then fitted to the equation that describes the formation of a transient hAIF∆1-101phrd:NAD^+ complex prior to the CTC stabilization: (4) kobs=kCTCNAD^+/KdNAD++NAD^+, in which kCTC is the limiting rate constant for the rearrangement of the encounter complex to form the CTC, and Kd^NAD+ is the dissociation constant for the mentioned transient encounter complex.
# [2] = Reactivity of the CTC towards molecular oxygen (CTC half-life); format: biochemical; conditions: 25°C, air saturated 50 mM potassium phosphate, pH 7.4
# Description: The reactivity of the CTC towards molecular oxygen was monitored by full reduction of hAIF∆1-101 samples with NADH (1.5-fold the concentration of the protein) in 50 mM phosphate buffer, pH 7.4, and following their reoxidation in a Cary 100 spectrophotometer (Agilent, Santa Clara, CA). Absorption spectra were recorded at 25 °C until full oxidation of the flavin cofactor was achieved. For each time, the percent remaining of CTC versus reoxidation by molecular oxygen was estimated as ΔAt/ΔAmax, where ΔAmax is the difference between the minimum and the maximum absorbance at 700 nm, and ΔAt is the difference of each value at 700nm minus the minimum absorbance at 700 nm. The CTC half-life is the time at which 50% of CTC still remains.
# dsDNA = experiment: ITC binary interaction with dsDNA; format: binding
# Description: (§1) ITC assays were carried out using an Auto-iTC200 (MicroCal, Malvern-Panalytical, Malvern, UK) thermostated at 25 °C. Typically, […] protein partner and dsDNA samples—prepared as described below—were used to titrate ~10 μM hAIF∆1-101 variants. All solutions were degassed at 15°C for 1 min before each assay. A sequence of 2 μL injections of titrant solution every 150 s was programmed, and the stirring speed was set to 750 rpm. The association constant (Ka), the enthalpy of binding (ΔH), and the binding stoichiometry (N) were estimated through nonlinear least-squares regression of the experimental data employing a single-ligand binding site model implemented in Origin 7.0 (OriginLab, Northampton, MA). The dissociation constant (Kd), the free energy change (ΔG), and the entropy change (ΔS) were obtained from basic thermodynamic relationships.
# Since hAIF binds DNA unspecifically, a 0.5 mM dsDNA sample was prepared from 1 mM solutions of HPLC-purified forward and a reverse complementary 15-bp oligonucleotides (5′- GGT TAG TTA TGC GCG -3′; randomly designed) synthetized by Integrated DNA Technologies. The pair of oligonucleotides was mixed at an equimolar ratio and annealed by heating 1 min at 99°C and performing a 3 h temperature scanning from 95 to 25°C, decreasing 1°C each 3 min. 0.5 mM dsDNA stock solutions were obtained.
# [3] = Steady-state DCPIP-dependent diaphorase (NADH oxidase) activity; format: biochemical
# Description: […] When saturation profiles on the pyridine nucleotide concentration were observed, kinetic constants were estimated by fitting initial reaction rates at different coenzyme concentrations to the Michaelis-Menten equation: (2) ν/e=kcat NADH/KmNADH+NADH,ν/e=kcat/KmNADHNADH/1+kcat/KmNADHNADH/kcat, where v stands for the initial velocity, e is the enzyme concentration, Km^NADH is the Michaelis constant for the enzyme-NADH complex, kcat is the turnover number of the enzyme, and kcat/Km^NADH is the enzyme catalytic efficiency.
# CypA = biological target: T2, CypA (Homo sapiens, UniProt P62937); experiment: ITC binary interaction with CypA; format: binding; conditions: oxidized hAIF∆1-101 titrated with CypA, 25°C, pH 7.4
# T2 construct: His6 (N); made in house; host or cells: E. coli C41 (DE3)
# T2 sequence (P62937 whole entry): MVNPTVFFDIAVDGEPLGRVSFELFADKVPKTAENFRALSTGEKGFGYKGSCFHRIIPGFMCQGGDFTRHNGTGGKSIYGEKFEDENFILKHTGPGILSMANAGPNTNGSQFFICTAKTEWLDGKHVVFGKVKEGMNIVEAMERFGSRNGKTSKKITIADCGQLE
# Description: as §1
# [4] = Stopped-flow reduction of hAIF∆1-101ox by NADH (hydride transfer); format: biochemical
# Description: A SX18.MV stopped-flow spectrophotometer (Applied Photophysics Ltd., Surrey, UK), interfaced with the ProData-SX software and a photodiode array detector, was used to investigate the fast kinetic reduction of the hAIF variants by the NADH coenzyme. Samples of ~10 μM hAIF∆1-101ox were mixed with increasing concentrations of NADH (0.03-10 mM) under aerobic conditions in 50 mM potassium phosphate, pH 7.4, at 25 °C. The enzyme and NADH concentrations are the final ones obtained after mixing equal volumes of substrate and enzyme. Observed rate constants for the hydride transfer (HT) event (kobs) were calculated by global analysis and numerical integration methods (simultaneously using all spectral data in the 400-800 nm region along time evolution). A single-step model (A→B) best fitted to describe the overall reaction at all NADH concentrations assayed. Averaged kobs values at each NADH concentration were then fitted to the equation that describes the formation of an enzyme:substrate complex prior to the HT event: (3) kobs=kHTNADH/KdNADH+NADH+krev, where kHT is the limiting rate constant for HT from the pyridine nucleotide coenzyme to the FAD cofactor of hAIF, Kd^NADH is the dissociation constant of the transient hAIF∆1-101ox:NADH complex, and krev is the reaction constant for a potential overall reverse process.
# CHCHD4 = biological target: T1, CHCHD4; experiment: ITC binary interaction with CHCHD4; format: binding
# Description: as §1
# [5] = biological target: T3, WT human apoptosis-inducing factor hAIF_(Δ1-101) (human, UniProt O95831 102-613); experiment: ITC; Auto-iTC200, 25°C, 50 mM potassium phosphate, pH 7.4; 10-20 μM protein partner titrated into ~10 μM hAIF_(∆1-101) variant in the CTC state (premixed with NADH at a 1 : 100 ratio); single-ligand binding site model; conditions: both partners purified
# T3 construct: FAD holoprotein. 'ox' is the oxidized protein; 'CTC' is the same protein reduced by an excess of NADH (FADH-/NAD+ charge transfer complex); The His6 tag is called cleavable; whether it was cleaved is told only in the supplementary materials; also called WTox; source: protocol in the supplementary materials
# T3 sequence (O95831 102-613, stated change not applied): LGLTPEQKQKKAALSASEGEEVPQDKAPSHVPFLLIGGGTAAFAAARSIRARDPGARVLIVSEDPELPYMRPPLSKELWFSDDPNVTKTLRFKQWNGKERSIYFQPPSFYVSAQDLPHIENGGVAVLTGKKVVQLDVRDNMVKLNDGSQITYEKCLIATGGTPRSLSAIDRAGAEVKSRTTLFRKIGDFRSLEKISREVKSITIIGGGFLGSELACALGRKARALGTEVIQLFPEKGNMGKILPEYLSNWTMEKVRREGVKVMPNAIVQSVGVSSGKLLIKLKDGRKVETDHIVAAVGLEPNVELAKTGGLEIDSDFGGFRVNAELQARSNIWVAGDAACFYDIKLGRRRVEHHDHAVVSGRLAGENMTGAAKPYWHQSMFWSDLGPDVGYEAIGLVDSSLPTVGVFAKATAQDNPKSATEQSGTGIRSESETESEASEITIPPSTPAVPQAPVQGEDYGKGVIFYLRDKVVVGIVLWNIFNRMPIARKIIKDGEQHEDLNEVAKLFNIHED
# W196Y hAIF_(Δ1-101) = biological target: T4, W196Y hAIF_(Δ1-101) (human, UniProt O95831 102-613, W196Y); experiment: as above; conditions: both partners purified
# T4 construct: FAD holoprotein; 'ox' oxidized, 'CTC' after reduction with NADH; The His6 tag is called cleavable; whether it was cleaved is told only in the supplementary materials; also called W196Yox; W196Y CTC; source: E. coli C41 (DE3), purified to homogeneity (protocol in the supplementary materials)
# T4 sequence (O95831 102-613 W196Y): as the sequence (O95831 102-613, stated change not applied) above, with W95Y counted along it
# W196A hAIF_(Δ1-101) [6] = biological target: T5, W196A hAIF_(Δ1-101) (human, UniProt O95831 102-613, W196A); experiment: as above; conditions: both partners purified
# T5 construct: FAD holoprotein; 'ox' oxidized, 'CTC' after reduction with NADH; The His6 tag is called cleavable; whether it was cleaved is told only in the supplementary materials; also called W196Aox; source: E. coli C41 (DE3), purified to homogeneity (protocol in the supplementary materials)
# T5 sequence (O95831 102-613 W196A): as the sequence (O95831 102-613, stated change not applied) above, with W95A counted along it
# W196A hAIF_(Δ1-101) [7] = biological target: T5, W196A hAIF_(Δ1-101); experiment: ITC; Auto-iTC200, 25°C, 50 mM potassium phosphate, pH 7.4; 10-20 μM protein partner titrated into ~10 μM oxidized hAIF_(∆1-101) variant, without NADH; single-ligand binding site model; conditions: both partners purified
# [8] = steady-state DCPIP diaphorase reaction
# [9] = CTC form titrated with CHCHD4, ITC, 25°C, pH 7.4
molecule,measurement,setting,value
"W196Y: W196Y site-directed mutant of hAIF∆1-101; ox = oxidized, CTC = charge transfer complex with NAD+",k CTC,"[1]; hAIF∆1-101phrd variants mixed with NAD+, anaerobic, 25°C, pH 7.4",16 ± 1 s⁻¹
same,k CTC/Kd^NAD+,"[1]; hAIF∆1-101phrd variants, anaerobic, 25°C, pH 7.4",87000 ± 14000 M⁻¹ s⁻¹
same,decrease in Kd^NAD+ relative to WT,[1]; hAIF∆1-101phrd with NAD+,~ 11 fold
same,decrease in kCTC relative to WT,[1]; hAIF∆1-101phrd with NAD+,less than 3 fold
same,Kd,"[1]; transient hAIF∆1-101phrd:NAD+ complex, anaerobic, 25°C, pH 7.4, read-out: K d ^NAD+",183 ± 27 µM
same,CTC half-life versus reoxidation by O2,[2],42 min
same,Kd for DNA higher than WT,"dsDNA; hAIFΔ1−101ox, binary complexes",~ 4 fold
same,Kd,"dsDNA; oxidized hAIF∆1-101 titrated with 15-bp dsDNA, 25°C, pH 7.4",6.9 µM
same,efficiency oxidizing NADH relative to WT,[3]; [8],~ 3 times
same,increase in turnover rate relative to WT,[3]; [8],~ 3 fold
same,K m ^NADH,"[3]; steady-state, NADH donor, 95 μM DCPIP acceptor, 25°C, 50 mM potassium phosphate, pH 7.4 (table footnote)",505 ± 35 µM
same,k cat,"[3]; steady-state, NADH donor, 95 μM DCPIP acceptor, 25°C, 50 mM potassium phosphate, pH 7.4 (table footnote), n = 3, mean ± SD",2.7 ± 0.1 s⁻¹
same,-TΔS,CypA,-24.9 kcal/mol
same,ΔG,CypA,-7.9 kcal/mol
same,ΔH,CypA,17.0 kcal/mol
same,ΔH (unfolding enthalpy),"CTC hAIF∆1-101rd:NAD^+, 100-fold excess NADH",167 ± 4 kcal/mol
same,T m CTC ^FAD,"CTC hAIF∆1-101rd:NAD^+, 100-fold excess NADH, pH 7.4, ionic strength 150 mM",323 ± 1 K
same,T m CTC ^FAD − Tm^FAD,CTC state relative to oxidized state of the same variant,−6 ± 2 K
same,ΔTm CTC^FAD,"CTC state, variant relative to WT CTC",−1 ± 2 K
same,ΔH (unfolding enthalpy),"hAIF∆1-101ox, pH 7.4, ionic strength 150 mM",123 ± 3 kcal/mol
same,ΔTm^FAD,"hAIF∆1-101ox, variant relative to WT",−8 ± 2 K
same,T m ^FAD,"hAIF∆1-101ox, ~2 μM protein, 50 mM potassium phosphate, pH 7.4, ionic strength 150 mM",329 ± 1 K
same,k HT/Kd^NADH,"[4]; pre-steady-state, 25°C, pH 7.4",4000 ± 800 M⁻¹ s⁻¹
same,k HT,"[4]; pre-steady-state, hydride transfer from NADH to FAD, aerobic, 25°C, 50 mM potassium phosphate, pH 7.4",12 ± 1 s⁻¹
same,Kd,"[4]; pre-steady-state, transient hAIF∆1-101ox:NADH complex, 25°C, pH 7.4, read-out: K d ^NADH",2870 ± 320 µM
same,efficiency as hydride acceptor from NADH relative to WT,"[4]; stopped-flow, NADH",~ 12 fold
same,Kd,"CHCHD4; CTC form (premixed with NADH 1:100) titrated with CHCHD4, ITC, 25°C, pH 7.4, read-out: K d",2.1 µM
same,-TΔS,CHCHD4; [9],0.7 kcal/mol
same,ΔG,CHCHD4; [9],-7.5 kcal/mol
same,ΔH,CHCHD4; [9],-8.2 kcal/mol
same,Kd for CHCHD4 higher relative to WT CTC,"CHCHD4; CTC form, ITC",~ 10 fold
same,Kd,"CHCHD4; oxidized hAIF∆1-101 titrated with CHCHD4, ITC, 25°C, 50 mM potassium phosphate, pH 7.4, listed as W196Yox",heat exchange was not observed; also recorded: No detected binding
"human CHCHD4 (coiled-coil-helix-coiled-coil-helix domain containing 4) (natural protein, UniProt Q8N4Q1 1-142, looked up, human CHCHD4, UniProtKB Q8N4Q1; synthetic codon-optimised cDNA in pET28a (NdeI-NotI); The His6 tag is called cleavable; whether it was cleaved is told only in the supplementary materials; source: E. coli C41 (DE3), purified (protocol in the supplementary materials)) MSYCRQEGKDRIIFVTKEDHETPSSAELVADDPNDPYEEHGLILPNGNINWNCPCLGGMASGPCGEQFKSAFSCFHYSTEEIKGSDCVDQFRAMQECMQKYPDLYPQEDEDEEEEREKKPAEQAEETAPIEATATKEEEGSS",Kd,[5],0.2 µM
same,dH,[5],-20.1 kcal/mol
same,Kd,W196Y hAIF_(Δ1-101),2.1 µM
same,dH,W196Y hAIF_(Δ1-101),-8.2 kcal/mol
same,Kd,W196A hAIF_(Δ1-101) [6],0.5 µM
same,dH,W196A hAIF_(Δ1-101) [6],-5.9 kcal/mol
same,Kd,W196A hAIF_(Δ1-101) [7],0.4 µM
same,dH,W196A hAIF_(Δ1-101) [7],9.6 kcal/mol
